The text below walks through data of patent US20050282239A1, “Cell-permeable enzyme activation reporter that can be loaded in a high throughput and gentle manner” (priority 2003, published 2005).

Ends that are not written are not given here.

For data set [1], the target named is T1, PKB (Homo sapiens, UniProt P31749).
T1 construct: endogenous in cells; host or cells: HT1080 cells; HT1080/PTEN cells (engineered to over-express wild type PTEN, PKB itself not transfected)
The data set can be described thus: CACE: intracellular phosphorylation of PKB substrate in HT1080 cells. The class given is cell-based. The source says: Since the properties of F-PKB (SEQ ID NO:17) microinjected into HT1080 cells have been well characterized, experiments were undertaken to compare the fate of F-PKB-C loaded as F-PKB-C-SS-TAT (SEQ ID NO:16) into HT1080 cells to that of the microinjected F-PKB (SEQ ID NO:17). When microinjected, the percentage of phosphorylated F-PKB depended on the relative, steady-state levels of both the kinases and phosphatases. This observation is shown in electrophoretic traces from cells loaded with F-PKB-C-SS-TAT (1 μM) (FIG. 6). A single asterisk denotes the migration time of F-PKB, and a double asterisk denotes the migration time of phosphorylated F-PKB from cells on the day of the experiment.
(§1) CACE has been previously described (Sims, Meredith et al. 1998; Meredith, Sims et al. 2000; Li, Wu et al. 2001). Briefly, cells were placed on an inverted fluorescence microscope stage (Diaphot 300, Nikon, Japan) and maintained at 37° C. with an objective heater (Bioptechs; Butler, Pa.) prior to lysis unless stated otherwise. The cells were continually washed with ECB maintained at 37° C. (unless otherwise indicated) with a flow rate of 1 ml/min and a total chamber volume of 0.5 ml. The inlet of a capillary (30 μm I.D., 360 μm O.D., 75 cm long) was positioned 10 μm above the cell. The inverted microscope was coupled to a pulsed Nd:YAG laser and a CE system (Sims, 1998). The CACE-based assay was performed as previously described (U, 2001; Meredith, 2000). Cells were always maintained in ECB when analyzed by the CACE.
CE was performed as described (Sims, Meredith et al. 1998), with the following modifications. The inner walls of the capillaries (30 μm I.D., 360 μm O.D.) were coated with poly(acrylate) (Wang, Hu et al. 2003). The outlet of the capillary was held at a negative potential of 18-21 kV, and the inlet reservoir was held at ground potential. Under these conditions, the current through the capillary was typically ˜36 μA. Solutions of standards were loaded into the capillary by gravitational fluid flow. The loaded volume was calculated from Poiseulle's equation and from contributions by spontaneous fluid displacement and diffusion (Weinberger, 2000; Fishman, 1994; Crank, 1989). To estimate the number of moles of peptide in an unknown solution or within a cell, the peak area from the electrophoretic trace of the solution or the cell was compared to that of a standard of known concentration separated by electrophoresis on the same day. A 1 pL cell volume and 100% peptide recovery was assumed in calculating intracellular peptide concentration (Meredith, Sims et al. 2000; Sims, Meredith et al. 1998). Analytes were detected by laser-induced fluorescence (Sims, Meredith et al. 1998).
Cells were incubated at room temperature for 5 minutes in 1% bovine serum albumin (BSA) in ECB, washed in ECB, and then incubated for 5 minutes at room temperature with a substrate conjugated to TAT(49-57). The cells were then washed with 1% BSA in ECB. Cells loaded with the disulfide conjugate were placed in supplement DMEM (10% FCS, 4 mM L-glutamine, 100 U/mL penicillin and 100 μg/mL streptomycin) and incubated at 37° C. in 5% CO2 for 20 minutes. Cells loaded with the photolabile conjugate were placed in supplemented DMEM and incubated at 37° C. in 5% CO2 for 10 minutes (unless stated otherwise) and were then illuminated with a UV light source for 10 seconds (a radiant energy/unit area of 2 kJ/m^2). The supplemented DMEM was exchanged and the cells were incubated another 10 minutes at 37° C. in 5% CO2. Just prior to analysis the cells were washed into ECB.

In another data set the test system is HT1080 cells. The data set can be described thus: CACE single-cell analysis: loading and release of cargo. Format: cell-based, human.
Data set [2] deals with T1, PKB. Nature of the data set: CACE: intracellular phosphorylation of PKB substrate in HT1080/PTEN cells. The class given is cell-based. The conditions noted are these: 1 μM extracellular, UVA 10 s. How it is done: Previous investigators developed cleavable PTD-cargo conjugates by engineering a disulfide linkage between the two domains (Stein, Weiss et al. 1999; Hallbrink, Floren et al. 2001). […] TAT(49-57)(SEQ ID NO:2) was conjugated via a disulfide bond to cysteines added to substrate peptides for CamKII (F-CamKII-C; SEQ ID NO:13) or PKB (F-PKB-C; SEQ ID NO:14), denoted F-CamKII-C-SS-TAT (SEQ ID NO:15) and F-PKB-C-SS-TAT (SEQ ID NO:16), respectively. The TAT(49-57)-Conjugated substrates were incubated with cells (HT1080 or HT1080/PTEN cells) and the contents of the cells were analyzed by the CACE. […]
CACE has been previously described (Sims, Meredith et al. 1998; Meredith, Sims et al. 2000; Li, Wu et al. 2001). Briefly, cells were placed on an inverted fluorescence microscope stage (Diaphot 300, Nikon, Japan) and maintained at 37° C. with an objective heater (Bioptechs; Butler, Pa.) prior to lysis unless stated otherwise. […] Cells were always maintained in ECB when analyzed by the CACE.
(§2) CE was performed as described (Sims, Meredith et al. 1998), with the following modifications. […] The loaded volume was calculated from Poiseulle's equation and from contributions by spontaneous fluid displacement and diffusion (Weinberger, 2000; Fishman, 1994; Crank, 1989). […] Analytes were detected by laser-induced fluorescence (Sims, Meredith et al. 1998). […]

A short description of data set [3]: In vitro UVA photocleavage of photolabile conjugate, CE quantification. The class given is physicochemical. The text has this: Therefore, we designed a second detachable linker between the TAT(49-57) and the substrate peptide. An Fmoc-aminoethyl photolabile moiety was inserted between the fluorescently-labeled substrate and the TAT(49-57) sequences using standard Fmoc peptide chemistry. The relative order of the different portions of the conjugate was: fluorescein-substrate-PLL-TAT(49-57). Two different substrate peptides were conjugated to TAT(49-57) to form F-PKB-PLL-TAT (SEQ ID NO:18) and F-CamKII-PLL-TAT (SEQ ID NO:19). To determine the time and irradiation intensity needed to photocleave the conjugated peptides, standard solutions (1 nM or 10 μM) of F-PKB-PLL-TAT (SEQ ID NO:18) were illuminated with long-wavelength UV light (UVA) for varying times. The sample was then loaded into a capillary and electrophoresis performed. The concentration of the released substrate peptide was quantified from its fluorescence. At the irradiation intensity used, maximal cleavage of the substrate peptide from the TAT(49-57) sequence was achieved within 20 minutes. […] After a 10 s exposure, 2% of the conjugate was photoreleased. […] The fluorescein was not substantially photobleached by the UVA-induced cleavage since the amount of fluorescent peptide detected after a 4 h irradiation was almost identical to that after 20 min of UVA exposure.
The photolabile TAT(49-57) conjugate (e.g., SEQ ID NOs:18 or 19) (1 nM or 10 μM in ECB) was illuminated with ultraviolet A (UVA; 20 mW/cm^2) using a 365 nm light source (UVP Blak-Ray B100AP; Upland, Calif.). […] for the photolabile group was 365 nm. After photo-release, the fluorescent substrate was resolved by electrophoresis and then quantified by CE. Detection wavelengths were: excitation, 488 nm; emission, 505-565 nm.
A known concentration of the photo-cleavable reporter was placed in an uncapped, shallow vial. The sample was then illuminated with the UV light source for varying times as described above. A small amount of the sample was then removed and the amount of released peptide was quantified using CE. […]

A further data set concerns CamKII. Nature of the data set: CACE: intracellular phosphorylation of CamKII substrate in HT1080 cells. Format: cell-based, human. As for the experimental part: To determine whether the detached peptide substrates were in the cytosol and accessible to kinases, the intracellular phosphorylation of the translocated cargo was studied. In the initial experiment, F-CamKII-C-SS-TAT (SEQ ID NO:15) at 750 nM extracellular concentration was loaded into HT1080 cells. The cells were incubated with ionomycin (500 nM) for 15 min to increase the intracellular concentration of free Ca^2+ and activate the CamKII enzyme (Worrell and Frizzell 1991). […] The migration time of the second peak was identical to that of phosphorylated F-CamKII-C loaded into cells. 52+3% (mean±SEM) (n=5) of the F-CamKII-C was phosphorylated as determined by comparison of the peak areas. At least half of the F-CamKII-C was in the cytosol and accessible to the kinase. For these cells the average number of moles per cell was ˜2×10^−20 which is equivalent to a cytosolic concentration of ˜100 nM.
as §1, §2

T1 sequence (P31749 whole entry): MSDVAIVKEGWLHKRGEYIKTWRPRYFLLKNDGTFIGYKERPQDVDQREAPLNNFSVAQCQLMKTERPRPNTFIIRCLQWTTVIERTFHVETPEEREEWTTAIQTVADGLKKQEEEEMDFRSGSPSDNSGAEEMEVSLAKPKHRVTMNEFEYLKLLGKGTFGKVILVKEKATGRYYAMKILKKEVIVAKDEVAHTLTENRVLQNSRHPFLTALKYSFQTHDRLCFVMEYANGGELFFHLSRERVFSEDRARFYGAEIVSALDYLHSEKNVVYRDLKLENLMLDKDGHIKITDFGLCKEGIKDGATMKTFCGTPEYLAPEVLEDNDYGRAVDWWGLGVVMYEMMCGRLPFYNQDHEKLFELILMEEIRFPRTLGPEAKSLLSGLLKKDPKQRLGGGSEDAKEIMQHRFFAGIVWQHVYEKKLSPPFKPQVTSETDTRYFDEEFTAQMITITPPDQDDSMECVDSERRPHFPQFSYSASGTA

Turning to “Gly Arg Pro Arg Ala Ala Thr Phe Ala Glu Gly (GRPRAATFAEG-NH2; not fully specified (N-terminus); printed as Gly Arg Pro Arg Ala Ala Thr Phe Ala Glu Gly; also: fluorescein label, position not given here) [F-PKB, fluorescein-labeled substrate for protein kinase B]”, in the data set with PKB [1] (microinjected), the “peptide phosphorylated at steady state” value is “approximately 70%” and the “time to steady state of phosphorylation” value was “less than 2 min”.

With “Gly Arg Pro Arg Ala Ala Thr Phe Ala Glu Gly Arg Lys Lys Arg Arg Gln Arg Arg Arg (GRPRAATFAEGRKKRRQRRR-NH2; not fully specified (residue 11, N-terminus); printed as Gly Arg Pro Arg Ala Ala Thr Phe Ala Glu Gly Arg Lys Lys Arg Arg Gln Arg Arg Arg; also: fluorescein, position not given here, photolabile linker, position not given here) [F-PKB-PLL-TAT, fluorescein-PKB substrate-photolabile linker-TAT(49-57)]”, in the data set with HT1080 cells (1 μM 5 min, 30 min incubation, UVA 10 s), the “cytoplasmic concentration of free F-PKB” value is recorded as ~200 nM. Besides, in the data set with HT1080 cells (1 μM 5 min, 30 min incubation, UVA 10 s, n=15), the “average quantity of F-PKB detected per cell” value came to 2e-19 ± 9e-20 mol. For the same substance, the “internalization process into the cytosol” value in the data set with HT1080 cells (1 μM, 37° C.) is “complete within one hour”. For the same substance, the “total amount of F-PKB detected versus incubation time” value in the data set on HT1080 cells (1 μM, 37° C., 5 min adsorption, wash, varying incubation, UVA 10 s) was “increased over the initial hour of incubation and then stabilized”. In the data set with HT1080 cells (1 μM, 4° C.), the “amount of F-PKB measured per cell” value is given as “reduced”. Further, the “amount of F-PKB measured per cell” value with HT1080 cells (1 μM, 23° C. and 37° C.) is “similar”. The “F-PKB present in the phosphorylated form” value with PKB [1] (1 μM extracellular, UVA 10 s, n=15) amounted to 67±7%. Moreover, in the data set with PKB [1] (1 μM, 37° C.), the “percentage of phosphorylated F-PKB versus incubation time” value is reported as “did not vary with the incubation time” and the “time scale on which F-PKB is accessible to kinase” value is given as < 30 min. For the same substance, the “phosphorylation of F-PKB” value with PKB [1] (1 μM, 4° C.) is listed as “Essentially no phosphorylation”. Besides, the “percentage of phosphorylated F-PKB” value with PKB [1] (1 μM, 23° C. and 37° C.) was “similar”. In addition, the “phosphorylation of released F-PKB” value in the data set with PKB [2] was “not seen”. The conjugate photoreleased in data set [3] (10 s UVA exposure) is reported as 2%. The “time to maximal cleavage of substrate peptide from TAT(49-57)” value in data set [3] (UVA, 1 nM or 10 μM solution) is ≤ 20 min. Besides, in data set [3] (without UVA illumination), the free substrate peptide entry is recorded as “no free substrate peptide could be detected”.

Turning to “KKALHRQETVDALCRKKRRQRRR [F-CamKII-C-SS-TAT]”, the “average number of moles per cell” value with HT1080 cells (750 nM extracellular, ionomycin-treated cells) was ~2e-20 mol. Moreover, in the data set on HT1080 cells (750 nM extracellular, ionomycin-treated cells, 1 pL cell volume assumed), the cytosolic concentration is ~100 nM. For the same substance, the “F-CamKII-C phosphorylated (mean±SEM)” value in the data set with CamKII (750 nM extracellular, ionomycin 500 nM 15 min, n=5) is 52+3%.

Consider “KKALHRQETVDALCRKKRRQRRR [F-CamKII-PLL-TAT]”, for which, in the data set on HT1080 cells (300 nM extracellular), the “average concentration of F-CamKII in the cytosol” value worked out at 180 nM. In the data set on HT1080 cells (300 nM extracellular, n=3), the “detectable F-CamKII per cell” value is 1.8e-19 ± 1.9e-19 mol. Besides, the “total F-CamKII phosphorylated” value in the data set with CamKII (300 nM extracellular, ionomycin 500 nM 15 min, n=3) is given as 67±17%.

On to “Lys Lys Ala Leu His Arg Gln Glu Thr Val Asp Ala Leu Cys (KKALHRQETVDALC-NH2; not fully specified (N-terminus); printed as Lys Lys Ala Leu His Arg Gln Glu Thr Val Asp Ala Leu Cys; also: fluorescein label, position not given here) [F-CamKII-C, fluorescein-labeled CamKII substrate with added cysteine]”, for which, in the data set on CamKII (HT1080 cells, no constitutive CamKII activity), the “phosphorylation in unstimulated cells” value was “little to no phosphorylation”.
